In publication PMC11952669 (Research Square, 2025):

B1: R.nor ACE2 ectodomain (residues 1–741), dimeric (receptor)
chain: QSLIEEKAESFLNKFNQEAEDLSYQSSLASWNYNTNITEENAQKMNEAAAKWSAFYEEQSKIAQNFSLQEIQNATIKRQLKALQQSGSSALSPDKNKQLNTILNTMSTIYSTGKVCNSMNPQECFLLEPGLDEIMATSTDYNRRLWAWEGWRAEVGKQLRPLYEEYVVLKNEMARANNYEDYGDYWRGDYEAEGVEGYNYNRNQLIEDVENTFKEIKPLYEQLHAYVRTKLMEVYPSYISPTGCLPAHLLGDMWGRFWTNLYPLTTPFLQKPNIDVTDAMVNQSWDAERIFKEAEKFFVSVGLPQMTPGFWTNSMLTEPGDDRKVVCHPTAWDLGHGDFRIKMCTKVTMDNFLTAHHEMGHIQYDMAYAKQPFLLRNGANEGFHEAVGEIMSLSAATPKHLKSIGLLPSNFQEDNETEINFLLKQALTIVGTLPFTYMLEKWRWMVFQDKIPREQWTKKWWEMKREIVGVVEPLPHDETYCDPASLFHVSNDYSFIRYYTRTIYQFQFQEALCQAAKHDGPLHKCDISNSTEAGQKLLNMLSLGNSGPWTLALENVVGSRNMDVKPLLNYFQPLFVWLKEQNRNSTVGWSTDWSPYADQSIKVRISLKSALGKNAYEWTDNEMYLFRSSVAYAMREYFSREKNQTVPFGEADVWVSDLKPRVSFNFFVTSPKNVSDIIPRSEVEEAIRMSRGRINDIFGLNDNSLEFLGIYPTLKPPYEPPVTI
notes: also called soluble dimeric R.nor ACE2; R.nor (Rodent) ACE2; source: Expi293F, purified (Ni Sepharose, Superose-6 gel filtration)

What was measured:
[1] = molecular target: Biotinylated VsCoV-a7 RBD (residues 356–556) (bat MERSr-CoV VsCoV-a7 (from Vespertilio sinensis)); experiment: BLI
[2] = molecular target: the molecule itself; experiment: cryo-EM structure

Row | Molecule | Kd [1] [nM] | binding result [2]
1 | E.fus ACE2 ectodomain (residues 1–747), dimeric (receptor) | 816 | –
2 | B1 | – | binds
